B1: Homeobox protein cut-like 1, residues 941 to 1008; numbered along this chain, P39880 (parent)
chain: QEVDTIELTRQVKEKLAKNGICQRIFGEKVLGLSQGSVSDMLSRPKPWSKLTQKGREPFIRMQLWLNG

± gives the uncertainty stated by the source.

The variants in the series derive from B1. Put plainly: abundance fitness (aPCA) (normalised: wild type 0, dead -1); higher = more abundant; growth selection in yeast, the domain comes from the species named. Particulars: Homo sapiens.
In the case of QEVDTIELTRQVKEKLAKNGICQRIFGEKVLGLSQGSVSDMGSRPKPWSKLTQKGREPFIRMQLWLNG [L42G], the abundance fitness was -0.275 ± 0.053.

Turning to QEVDTIELTRQVKEKLAKNGICQRIFGEKVLGLSQGSVSDMMSRPKPWSKLTQKGREPFIRMQLWLNG [L42M], the abundance fitness is -0.215 ± 0.089.

Regarding QEVDTIELTRQVKEKLAKNGICQRIFGEKVLGLSQGSVSDMNSRPKPWSKLTQKGREPFIRMQLWLNG [L42N], the abundance fitness is -0.405 ± 0.077.

As for QEVDTIELTRQVKEKLAKNGICQRIFGEKVLGLSQGSVSDMPSRPKPWSKLTQKGREPFIRMQLWLNG [L42P], the abundance fitness is -0.117 ± 0.066.

On to QEVDTIELTRQVKEKLAKNGICQRIFGEKVLGLSQGSVSDMESRPKPWSKLTQKGREPFIRMQLWLNG [L42E], for which the abundance fitness was -0.281 ± 0.067.

For the variant QEVDTIELTRQVKEKLAKNGICQRIFGEKVLGLSQGSVSDMSSRPKPWSKLTQKGREPFIRMQLWLNG [L42S], the abundance fitness is -0.236 ± 0.048.

For the variant QEVDTIELTRQVKEKLAKNGICQRIFGEKVLGLSQGSVSDMWSRPKPWSKLTQKGREPFIRMQLWLNG [L42W], the abundance fitness is -0.134 ± 0.076.

Consider QEVDTIELTRQVKEKLAKNGICQRIFGEKVLGLSQGSVSDMISRPKPWSKLTQKGREPFIRMQLWLNG [L42I], for which the abundance fitness is -0.171 ± 0.091.

In the case of QEVDTIELTRQVKEKLAKNGICQRIFGEKVLGLSQGSVSDMTSRPKPWSKLTQKGREPFIRMQLWLNG [L42T], the abundance fitness is -0.424 ± 0.069.

As to QEVDTIELTRQVKEKLAKNGICQRIFGEKVLGLSQGSVSDMHSRPKPWSKLTQKGREPFIRMQLWLNG [L42H], the abundance fitness is -0.184 ± 0.084.

Consider QEVDTIELTRQVKEKLAKNGICQRIFGEKVLGLSQGSVSDMFSRPKPWSKLTQKGREPFIRMQLWLNG [L42F], for which the abundance fitness was -0.158 ± 0.071.

On to QEVDTIELTRQVKEKLAKNGICQRIFGEKVLGLSQGSVSDMQSRPKPWSKLTQKGREPFIRMQLWLNG [L42Q], for which the abundance fitness was -0.376 ± 0.088.

In the case of QEVDTIELTRQVKEKLAKNGICQRIFGEKVLGLSQGSVSDMVSRPKPWSKLTQKGREPFIRMQLWLNG [L42V], the abundance fitness is -0.264 ± 0.046.

In the case of QEVDTIELTRQVKEKLAKNGICQRIFGEKVLGLSQGSVSDMRSRPKPWSKLTQKGREPFIRMQLWLNG [L42R], the abundance fitness is -0.224 ± 0.052.

In the case of QEVDTIELTRQVKEKLAKNGICQRIFGEKVLGLSQGSVSDMASRPKPWSKLTQKGREPFIRMQLWLNG [L42A], the abundance fitness is -0.324 ± 0.052.

QEVDTIELTRQVKEKLAKNGICQRIFGEKVLGLSQGSVSDMYSRPKPWSKLTQKGREPFIRMQLWLNG [L42Y]: the abundance fitness is -0.481 ± 0.076.

For QEVDTIELTRQVKEKLAKNGICQRIFGEKVLGLSQGSVSDMKSRPKPWSKLTQKGREPFIRMQLWLNG [L42K], the abundance fitness is -0.04 ± 0.077.

With QEVDTIELTRQVKEKLAKNGICQRIFGEKVLGLSQGSVSDMDSRPKPWSKLTQKGREPFIRMQLWLNG [L42D], the abundance fitness is -0.393 ± 0.073.

Take QEVDTIELTRQVKEKLAKNGICQRIFGEKVLGLSQGSVSWMLSRPKPWSKLTQKGREPFIRMQLWLNG [D40W]: the abundance fitness was -0.155 ± 0.11.

As for QEVDTIELTRQVKEKLAKNGICQRIFGEKVLGLSQGSVSTMLSRPKPWSKLTQKGREPFIRMQLWLNG [D40T], the abundance fitness was -0.121 ± 0.072.

Turning to QEVDTIELTRQVKEKLAKNGICQRIFGEKVLGLSQGSVSYMLSRPKPWSKLTQKGREPFIRMQLWLNG [D40Y], the abundance fitness is -0.212 ± 0.061.

For the variant QEVDTIELTRQVKEKLAKNGICQRIFGEKVLGLSQGSVSKMLSRPKPWSKLTQKGREPFIRMQLWLNG [D40K], the abundance fitness is -0.352 ± 0.091.

Turning to QEVDTIELTRQVKEKLAKNGICQRIFGEKVLGLSQGSVSHMLSRPKPWSKLTQKGREPFIRMQLWLNG [D40H], the abundance fitness is -0.118 ± 0.077.

On to QEVDTIELTRQVKEKLAKNGICQRIFGEKVLGLSQGSVSNMLSRPKPWSKLTQKGREPFIRMQLWLNG [D40N], for which the abundance fitness is -0.133 ± 0.12.

Regarding QEVDTIELTRQVKEKLAKNGICQRIFGEKVLGLSQGSVSSMLSRPKPWSKLTQKGREPFIRMQLWLNG [D40S], the abundance fitness is -0.127 ± 0.052.

For the variant QEVDTIELTRQVKEKLAKNGICQRIFGEKVLGLSQGSVSPMLSRPKPWSKLTQKGREPFIRMQLWLNG [D40P], the abundance fitness is -0.102 ± 0.071.

As to QEVDTIELTRQVKEKLAKNGICQRIFGEKVLGLSQGSVSFMLSRPKPWSKLTQKGREPFIRMQLWLNG [D40F], the abundance fitness is -0.251 ± 0.071.

As to QEVDTIELTRQVKEKLAKNGICQRIFGEKVLGLSQGSVSEMLSRPKPWSKLTQKGREPFIRMQLWLNG [D40E], the abundance fitness amounted to 0.044 ± 0.065.

QEVDTIELTRQVKEKLAKNGICQRIFGEKVLGLSQGSVSIMLSRPKPWSKLTQKGREPFIRMQLWLNG [D40I]: the abundance fitness is -0.349 ± 0.096.

On to QEVDTIELTRQVKEKLAKNGICQRIFGEKVLGLSQGSVSCMLSRPKPWSKLTQKGREPFIRMQLWLNG [D40C], for which the abundance fitness is -0.209 ± 0.093.

Consider QEVDTIELTRQVKEKLAKNGICQRIFGEKVLGLSQGSVSAMLSRPKPWSKLTQKGREPFIRMQLWLNG [D40A], for which the abundance fitness is -0.158 ± 0.055.

With QEVDTIELTRQVKEKLAKNGICQRIFGEKVLGLSQGSVSVMLSRPKPWSKLTQKGREPFIRMQLWLNG [D40V], the abundance fitness was -0.339 ± 0.053.

With QEVDTIELTRQVKEKLAKNGICQRIFGEKVLGLSQGSVSRMLSRPKPWSKLTQKGREPFIRMQLWLNG [D40R], the abundance fitness is -0.514 ± 0.078.

For QEVDTIELTRQVKEKLAKNGICQRIFGEKVLGLSQGSVSDMLSAPKPWSKLTQKGREPFIRMQLWLNG [R44A], the abundance fitness came out at 0 ± 0.058.

In the case of QEVDTIELTRQVKEKLAKNGICQRIFGEKVLGLSQGSVSDMLSEPKPWSKLTQKGREPFIRMQLWLNG [R44E], the abundance fitness is -0.176 ± 0.072.

On to QEVDTIELTRQVKEKLAKNGICQRIFGEKVLGLSQGSVSDMLSIPKPWSKLTQKGREPFIRMQLWLNG [R44I], for which the abundance fitness was -0.189 ± 0.1.

As for QEVDTIELTRQVKEKLAKNGICQRIFGEKVLGLSQGSVSDMLSFPKPWSKLTQKGREPFIRMQLWLNG [R44F], the abundance fitness is -0.041 ± 0.09.

QEVDTIELTRQVKEKLAKNGICQRIFGEKVLGLSQGSVSDMLSKPKPWSKLTQKGREPFIRMQLWLNG [R44K]: the abundance fitness was 0.098 ± 0.094.

Turning to QEVDTIELTRQVKEKLAKNGICQRIFGEKVLGLSQGSVSDMLSGPKPWSKLTQKGREPFIRMQLWLNG [R44G], the abundance fitness was -0.118 ± 0.044.

Source of the values: the Human Domainome abundance scans (Beltran et al. 2025).
